Laboratory results published in patent US20050239730A1, “Plasmodium falciparum erythrocyte binding protein baebl for use as a vaccine” (priority 2001, published 2005).

What was measured:
[1] = biological target: normal human erythrocytes (untreated); assay: region II on COS cells, erythrocyte-binding assay
[2] = biological target: Gerbich human erythrocytes (exon 3 deletion of glycophorin C/D: shortened glycophorin C, absent glycophorin D); assay: region II on COS cells, erythrocyte-binding assay
[3] = test system: human erythrocytes; assay: Modified erythrocyte binding assay: absorption/elution of metabolically labeled parasite proteins followed by immunoprecipitation; conditions: for Binding to En(a-) erythrocytes: which lack glycophorin A; for Binding to S-s-U- erythrocytes: S-s-U- erythrocytes that lacked glycophorin B; for Elution from Gerbich and normal erythrocytes: fresh Gerbich erythrocytes vs normal erythrocytes; for Absorption from culture supernatant by Gerbich cells compared with normal erythrocytes: fresh blood from a person with the Gerbich mutation, two separate experiments; for Binding to neuraminidase-treated human erythrocytes / Binding to trypsin-treated human erythrocytes: Dd2/Nm culture supernatant; for Binding to Gerbich erythrocytes: pellet-frozen Gerbich (-2, -3, -4) erythrocytes; for Binding to Yus erythrocytes: pellet-frozen Yus (-2, -3, -4) erythrocytes
From the text: We have developed a new assay for measuring binding of BAEBL to erythrocytes. Previously, EBA-175 was identified in parasite proteins bound and eluted from human erythrocytes. Its identification was based on the fact that it was the most abundant and the highest molecular weight protein eluted from these erythrocytes. Lower molecular weight proteins may be proteolytic fragments of EBA-175 or products of different genes. To positively identify BAEBL, we immunoprecipitated BAEBL from proteins eluted from erythrocytes with anti-region II and anti-region VI.
We also modified the protocol in that we identified proteins removed from the supernatant by erythrocyte absorption. We determined the different quantities of erythrocytes required to remove BAEBL from the parasite supernatant. […] The protein was largely removed by absorbing twice with 50 μl of packed erythrocytes for some culture supernatants and by only one absorbtion with 50 μl for other supernatants. Therefore, on some samples, we absorbed with 25 μl, 50 μl once, and 50 μl twice for comparison between normal erythrocytes and mutant erythrocytes or enzyme-treated erythrocytes. The protein was also eluted from the first 50 μl of packed erythrocytes used for absorption.
Blood was collected in 10% citrate-phosphate-dextrose (vol/vol) and stored for up to 4 weeks at 4° C. At the time of study, the erythrocytes were washed three times in incomplete media (RPMI-1640; Life Technologies, Rockville, Md.) with 25 mM HEPES and 0.36 mM hypoxanthine (Sigma, St. Louis, Mo.). For neuraminidase treatment, 5.5 ml of a 5% (vol/vol) suspension of the washed human erythrocytes in incomplete media were incubated twice with 3 milliunits of neuraminidase (Vibrio cholerae; CalBiochem, La Jolla, Calif.) for 2 hr at 37° C. each time. For trypsin treatment, washed human erythrocytes were incubated with 1 mg/ml of tosyl-phenylalanine-chloromethyl-ketone-treated trypsin (Sigma) for 2 hr at 37° C. After trypsin treatment, the cells were washed once in incomplete medium and incubated with 2 mg/ml soybean trypsin inhibitor (Sigma) for 10 min at room temperature. The cells were washed twice before use in a study.
The glycophorin A and glycophorin B null erythrocytes [En(a-) and S-s-U-, respectively and the glycophorin D null/glycophorin C modified erythrocytes (Gerbich cells) were frozen within a few days of receipt and thawed by the Red Cross method (Mallory, D. ed. 1993 Immunohematology Methods and Procedures American Red Cross, National Reference Laboratory, Rockville, Md., pp. 125-1-125-2). Blood from a Gerbich donor was collected in 10% (vol/vol) anticoagulant citrate-phosphate-dextrose.
Other glycophorin C/D mutant cells (Leach, Gerbich, and Yus cells) had been stored in liquid nitrogen as frozen pellets (Judd, W. J. 1994 in: Methods in Immunohematology Montgomery Scientific Publications Durham, N.C., pp. 188-190) and thawed directly into PBS at 37° C.
Soluble, metabolically labeled parasite proteins were obtained from culture supernatant of schizont-infected erythrocytes that released merozoites in the absence of uninfected erythrocytes. The parasites were left to lyse and release proteins into the culture supernatant. The Dd2/Nm clone of P. falciparum was cultured as previously described (Kaneko, O. et al. 2000 Mol Biochem Parasitol 110: […]) with the following exceptions. Schizont-infected erythrocytes (5×10^7 per ml of culture medium) were used during the metabolic labeling. The culture supernatant was ultracentrifuged in a Beckman Optima TLX Ultracentrifuge (Beckman, Fullerton, Calif.) at 40,000 rpm (98,600×g) for 10 min at 4° C. before storage at −70° C.
Proteins in the supernatant and in the diluted eluate were immunoprecipitated as previously described (Kaneko, O. et al. 2000 Mol Biochem Parasitol 110: 135-146) with the following exceptions. […]

[4] = glycophorin C/D null erythrocytes of the Leach phenotype, preliminary experiments

Row | Molecule | COS cells with five or more attached RBC, total per coverslip (COS cells per coverslip) [1] | percentage of binding to normal, untreated RBC [2] | Binding to En(a-) erythrocytes [3] | Binding to S-s-U- erythrocytes [3] | Elution from Gerbich and normal erythrocytes [3] | Absorption from culture supernatant by Gerbich cells compared with normal erythrocytes [3] | Detection in eluate of Leach erythrocytes [3, 4] | Detection in parasite supernatant absorbed with Leach erythrocytes [3, 4] | Binding to neuraminidase-treated human erythrocytes [3] | Elution from neuraminidase-treated normal erythrocytes ([3]; neuraminidase-treated normal erythrocytes) | Binding to Gerbich erythrocytes [3] | Binding to Yus erythrocytes [3] | Binding to trypsin-treated human erythrocytes [3]
1 | BAEBL region II variant VSTK, expressed on the surface of COS cells (ligand) | 65 | 0.9% | – | – | – | – | – | – | – | – | – | – | –
2 | BAEBL: Plasmodium falciparum erythrocyte binding protein of the DBL-EBP family (SEQ ID NO: 2); here metabolically labeled protein from Dd2/Nm culture supernatant (protein, listed as Plasmodium falciparum, metabolic label, here metabolically labeled protein from Dd2/Nm culture supernatant) MKGYFNIYFLIPLIFLYNVIRINESIIGRTLYNRQDESSDISRVNSPELNNNHKTNIYDSDYEDVNNKLINSFVENKSVKKKRSLSFINNKTKSYDIIPPSYSYRNDKFNSLSENEDNSGNTNSNNFANTSEISIGKDNKQYTFIQKRTHLFACGIKRKSIKWICRENSEKITVCVPDRKIQLCVANFLNSRLETMEKFKEIFLISVNTEAKLLYNKNEGKDPSIFCNELRNSFSDFRSSFIGDDMDFGGNTDRVKGYINTKFSDYYKEKNVEKLNNIKKEWWEKNKANLWNHMIVNHKGNISKECAIIPAEEPQINLWIKEWNENFLMEKKRLFLNIKDKCVENKKYEACFGGCRLPCSSYTSFMKKSKTQMEVLTNLYKKKNSGVDKNNFLNDLFKKNNKNDLDDFFKNEKEYDDLCDCRYTATIIKSFLNGPAKNDVDIASQINVNDLRGFGCNYKSNNEKSWNCTGTFTNKFPGTCEPPRRQTLCLGRTYLLHRGHEEDYKEHLLGASIYEAQLLKYKYKEKDENALCSIIQNSYADLADIIKGSDIIKDYYGKKMEENLNKVNKDKKRNEESLKIFREKWWDENKENVWKVMSAVLKNKETCKDYDKFQKIPQFLRWFKEWGDDFCEKRKEKIYSFESFKVECKKKDCDENTCKNKCSEYKKWIDLKKSEYEKQVDKYTKDKNKKMYDNIDEVKNKEANVYLKEKSKECKDVNFDDKIFNESPNEYEDMCKKCDEIKYLNEIKYPKTKHDIYDIDTFSDTFGDGTPISINANINEQQSGKDTSNTGNSETSDSPVSHEPESDAAINVEKLSGDESSSETRGILDINDPSVTNNVNEVHDASNTQGSVSNTSDITNGHSESSLNRTTNAQDIKIGRSGNEQSDNQENSSHSSDNSGSLTIGQVPSEDNTQNTYDSQNPHRDTPNALASLPSDDKINEIEGFDSSRDSENGRGDTTSNTHDVRRTNIVSERRVNSHDFIRNGMANNNAHHQYITQIENNGIIRGQEESAGNSVNYKDNPKRSNFSSENDHKKNIQEYNSRDTKRVREEIIKLSKQNKCNNEYSMEYCTYSDERNSSPGPCSREERKKLCCQISDYCLKYFNFYSIEYYNCIKSEIKSPEYKCFKSEGQSSIPYFAAGGILVVIVLLLSSASRMGKSNEEYDIGESNIEATFEENNYLNKLSRIFNQEVQETNISDYSEYNYNEKNMY | – | – | bound to these erythrocytes in a similar manner as to normal erythrocytes | bound | eluted from normal but not Gerbich erythrocytes | required twice as many Gerbich cells | never detected | not detected | eliminated the binding | did not elute | reduced binding | reduced binding | eliminated the binding
3 | EBA-175: P. falciparum receptor that binds sialic acid and the peptide backbone of glycophorin A on erythrocytes (protein) ARNEYDIKENEKFLDVYKEKFNELDKKKYGNVQKTDKKIFTFIENKLDILNNSKFNKRWKSYGTPDNIDKNMSLINKHNNEEMFNNNYQSFLSTSSLIKQNKYVPINAVRVSRILSFLDSRINNGRNTSSNNEVLSNCREKRKGMKWDCKKKNDRSNYVCIPDRRIQLCIVNLSIIKTYTKETMKDHFIEASKKESQLLLKKNDNKYNSKFCNDLKNSFLDYGHLAMGNDMDFGGYSTKAENKIQEVFKGAHGEISEHKIKNFRKEWWNEFREKLWEAMLSEHKNNINNCKNIPQEELQITQWIKEWHGEFLLERDNRSKLPKSKCKNNTLYEACEKECIDPCMKYRDWIIRSKFEWHTLSKEYETQKVPKENAENYLIKISENKNDAKVSLLLNNCDAEYSKYCDCKHTTTLVKSVLNGNDNTIKEKREHIDLDDFSKFGCDKNSVDTNTKVWECKNPYILSTKDVCVPPRRQELCLGNIDRIYDKNLLMIKEHILAIAIYESRILKRKYKNKDDKEVCKIINKTFADIRDIIGGTDYWNDLSNRKLVGKINTNSKYVHRNKKNDKLFRDEWWKVIKKDVWNVISWVFKDKTVCKEDDIENIPQFFRWFSEWGDDYCQDKTKMIETLKVECKEKPCEDDNCKSKCNSYKEWISKKKEEYNKQAKQYQEYQKGNNYKMYSEFKSIKPEVYLKKYSEKCSNLNFEDEFKEELHSDYKNKCTMCPEVKDVPISIIRNNEQTSQEAVPEENTEIAHRTETPSISEGPKGNEQKERDDDSLSKISVSPENSRPETDAKDTSNLLKLKGDVDISMPKAVIGSSPNDNINVTEQGDNISGVNSKPLSDDVRPDKKELEDQNSDESEETVVNHISKSPSINNGDDSGSGSATVSESSSSNTGLSIDDDRNGDTFVRTQDTANTEDVIRKENADKDEDEKGADEERHSTSESLSSPEEKMLTDNEGGNSLNHEEVKEHTSNSDNVQQSGGIVNMNVEKELKDTLENPSSSLDEGKAHEELSEPNLSSDQDMSNTPGPLDNTSEETTERISNNEYKVNEREDERTLTKEYEDIVLKSHMNRESDDGELYDENSDLSTVNDESEDAEAKMKGNDTSEMSHNSSQHIESDQQKNDMKTVGDLGTTHVQNEISVPVTGEIDEKLRESKESKIHKAEEERLSHTDIHKINPEDRNSNTLHLKDIRNEENERHLTNQNINISQERDLQKHGFHTMNNLHGDGVSERSQINHSHHGNRQDRGGNSGNVLNMRSNNNNFNNIPSRYNLYDKKLDLDLYENRNDSTTKELIKKLAEINKCENEISVKYCDHMIHEEIPLKTCTKEKTRNLCCAVSDYCMSYFTYDSEEYYNCTKREFDDPSYTCFRKEAFSSMIFKFLITNKIYYYFYTYKTAKVTIKKINFSLIFFFFFSF | – | – | failed to bind | bound | eluted from both Gerbich and normal erythrocytes | bound equally well to Gerbich and normal erythrocytes | – | – | failure of neuraminidase-and trypsin-treated erythrocytes to bind | – | bound normally | bound normally | failure of neuraminidase-and trypsin-treated erythrocytes to bind
